The domain aggregation screens of Martell et al. (2025)

Experiment: soluble fraction after stress (log2 fold change); higher = more stays soluble; pooled small domains, quantitative proteomics
Conditions: stress: 50 degC
How it was run: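 Pooled custom libraries of small protein domains were each held under stress at 50°C. The read-out, high-throughput quantitative proteomics, tracked how much of each protein stayed soluble. This is reported as a base-two log fold change used to indicate aggregation propensity. Higher values mean more protein remains in solution.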

HMLPQGKGTAMWLADHLAAASVTLDAGARKLLEDTLGEDMSRLPGVLRVLEATFGSDAGRLSAEDIEPFL
soluble fraction (log2): 0.31

HMLPRNKRIEIALTYIYGLGRHAATVVLKHANISPDKRTDDLDENDVRKLRDAIDANFRVEGDLRR
soluble fraction (log2): -0.0528

HMLPTVSITGHIFIRSGSPLNRIFVGEKIYHVGDHIDRDWVIESIGIDTLTIRSGTLSTQLPL
soluble fraction (log2): -2.87

HMLPVFNYQVYRTHGLIYVYAKDNDSFDQIARSMGFKAKQLMKFNEVPEDFPLQAGDIVYLEKKKK
soluble fraction (log2): -1.42

HMLPVLEIGTMIRIIRQPHFGTIARVVALPEELTKVESETLVRILDAEFDDGTRVRIPRANVEVIE
soluble fraction (log2): -1.25

HMLPYGDRRRHTDNTISRIRELAAALDDSGIADRLNQDGYVTPEGKPFTYAGVRWIRYKYDISGPYERN
soluble fraction (log2): -1.5

HMLQKVELSDNEKFIFDSLQKEQKMALLRLKELVNLSNKAWDVSVKNLTKQGLVKVTKIDEELLIEI
soluble fraction (log2): -0.949

HMLQPQMKKFLNYESARNKMRPFGLSTRKEWRLFVDEGNRPADIPGDPYKKYKNKGWISWPHFLGK
soluble fraction (log2): -1.58

HMLRDTTLLHIDSIVRDGSTAMANITVRDEGTDLEFPLQLRMERGDMGWQVVRIVNYRAYLEAVQKA
soluble fraction (log2): -0.336

HMLRGKNALMSQLDQIQGIGPKRKRALFNHFLTLDAIKQADVETLRQAPGMNLPAAEQVYRHFHM
soluble fraction (log2): 0.0637

HMLRIIDYNRVVKDLNGLTPEQLLEKLAESFTVEDKGTEEYRPTELHNFSMYLGGHWYSLTAKPGTYDDND
soluble fraction (log2): -0.937

HMLRMTRNRQKLVEVLMESGRPLSADEIREAAGFASTDLVTVYRNLEAFQSAGLLQRIPLENGSQLFELT
soluble fraction (log2): -0.478

HMLRNDEAVMLGRRLLNKHLQAFSVQIKDISHQRIHDLLDELELESLDHLLDDIGLGNRSVFLVAQKLLQ
soluble fraction (log2): -1.39

HMLRQRVFRIIQNNINSKNYFVYTKQILAELAGISMRSLNRTLSELQNDRLIIVDSGTIRLFT
soluble fraction (log2): -1.49

HMLRVGASVTANGKYWYDSYGSKPFGTANNLSTTVTRIVPGNPYPIHIGSYGWLQESQIQIT
soluble fraction (log2): -1.03

HMLSDADLAAFREVFDLVDKDKSGAIEMEEVEELTKLLGLDLTRDEVELLVREIDKDGNGEVDFEEFLLVM
soluble fraction (log2): 0.0193

HMLSDHGLNDRQIMVIAGLMNGGTVTVRSIESQYGVSLNTARADVKMLVDAGLLTETGREVNMKVYSWSGK
soluble fraction (log2): -2

HMLSDSDTLRDLYLSEQIWNVGDLIRVKGKNDDTHPSWEIIRRGTNYITAIDENYKSHKVWLHDIDI
soluble fraction (log2): -1.17

HMLSEKELLELLNRAKSNYNGITKKGIEAIALKYQGYSNVEIANLYHVKANHISAWISRARSRLKADY
soluble fraction (log2): 0.193

HMLSNLYAVLGVGRRATPDEITAAFDAWNARADAGEPIDDPLWERVRYAWDVLSSPSRRDLYDSLVDDATG
soluble fraction (log2): -1.71

HMLSSREEKILNYLNEHQIITRKKAQELLETSQSTAGRVLKIMVDNGLIVQYGGSRSIWYELIK
soluble fraction (log2): -0.939

HMLSTGIIIGDNVALRKTASSNGGIITRLDEGTVVKILASNVNAEWYQVEAGTKTGYVNRLYVNID
soluble fraction (log2): -0.293

HMLSTGQLIRYYRKRAGMTQAELAEEVEMSEPGIRNYELGNRTPSKAQLSAIARGLGIEPEALI
soluble fraction (log2): -0.48

HMLSVKEQTYQIIKEKILNQEYPAGARININELAEELGISNSPIREALSLLEQQGLVISNRSSGATVT
soluble fraction (log2): 0.00507

HMLSVLKNVDVNSLSDDKIKTYWQQIQKSGYTLDEVEVLAEAQGISPLKIAAFKRRVQSLQQSLQT
soluble fraction (log2): 0.199

HMLSYDDTVVIGRNLLENAMKQKNIALEQLTDEVLARLAKELQVESVEAMYAGIGSGKRPSSFIINRLEAH
soluble fraction (log2): -0.569

HMLSYFKIIKNGLVREGPASYYKIAENLEIGTIVQAFEKHDDWYLIKTHSGRIGWIVASDVTPQV
soluble fraction (log2): -0.245

HMLTAHEAILKELRKMLLTGVLSPGEAVRPEIIGESFGVSAVPVREALRILEGEGQVLNRPHKGYVVT
soluble fraction (log2): -0.568

HMLTANPEEVVNRLTSAGEVGVRPLLDVDDPINAISTLLAIREDVYKQFAQFDTVGKSPSEIAHEIDDFL
soluble fraction (log2): 0.00575

HMLTEERLQIITDTVNSRSSVTIAELSRILDVSPSTVKRDLNILAEAGKITKVRGGAIALGE
soluble fraction (log2): -0.0232

HMLTGDVDRYKDFFIALEKTSPVPIGFEKIIGGAHGYYHLEDKRIAIDEGMSELQTLKTAIHEIAHAKLHD
soluble fraction (log2): -0.14

HMLTGNTAKLFAHLVEVMNPKEFVKINRQTVIVEAGIPRGSVGAAIAKLLETGHLIANASGAYKLT
soluble fraction (log2): 0.322

HMLTIEEYLTQLKKLMKDRDAATVRDALSDAEEHLRNAMAGEDPSRLDGIIEEYGSPEEIAAAYKIMEEHT
soluble fraction (log2): 0.0389

HMLTIQNYFNQVKNIDWEQVPAALSKGHQLVEGASQNNWSAYHSNANIQRVVEAYFQKLNDYLEKN
soluble fraction (log2): -0.191

HMLTKGDRQSIRDSIIYMVGNAPRTLDYIVAESRYSEEDVIEAVRSLLSSHILSIDDSDMISLTRK
soluble fraction (log2): -0.448

HMLTNNYKNDKALRFAKNHGIHESNILKLVSLYENAPEKGFNAQSIAELLGITPRSASRILVKLLQHNLIR
soluble fraction (log2): -1.42

HMLTPSRVLPYLFEDSFFIDTLSLEKDQVVGFLEYIDERLPPQDLMNKSKEFELIDYLINESEAYLSQ
soluble fraction (log2): 0.0334

HMLTQEEITRRRGEILTAAMGVILRKGFLETSMREIAEAAGVGKSTLYDYFPSKDEIMIAYVVD
soluble fraction (log2): -0.938
